Stoichiometry N data for one substance are collected here from article doi:10.1101/545921.

The assay deals with AtGAPC1 C149S mutant (Arabidopsis thaliana). The assay can be described thus: dynamic light scattering.

For orientation: stoichiometry N means the number of molecules, sites or subunits per partner or assembly.

As to AtGAPC1 C149S mutant (enzyme), the stoichiometry N was 4.
